assay: yeast display, Sf9 membrane polyspecificity reagent, FACS + sequencing; frameworks hold sequencing errors
Summary of the method: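 Synthetic nanobody libraries on Saccharomyces cerevisiae BJ5465 were galactose-induced for 36–48 hours, stained 1 hour at 4 °C with 10% biotinylated, detergent-solubilized Sf9 membrane reagent and enriched on streptavidin microbeads. FACS then separated cells into low and high (top ~1%) gates by anti-HA (expression) and streptavidin (reagent binding) fluorescence. Genes were colony-PCR amplified, MiSeq 2 × 250 sequenced and CDR-length filtered. A clone's polyreactivity label is that of its gate of origin.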

| Sequence | polyreactivity (PSR sort gate) |
| --- | --- |
| QVELQVSGGGLVRAGGSLRLSCAASGNIFDADIMGWYRQAPGKERELVASITGGGSTSYAESAKGRFTISRDNAKNAVYLQMNRLKPEDTAVYYCAAAAYYADFDYWGQGTQVTVSS | low polyreactivity |
| QVELVESGGGLGQAGGSLRLSCAASGLIFVLNDMGWYRLAPGKVRELVAAISYSGSSTYADSVKGRFTISRDNAKNTVYLQMNSLKPEDTAVYYCARGSKVRTRGVGYWGQGTQVTVSS | low polyreactivity |
| QVELVESGGGLVQAGGSLRLSCAASGFTFGYNAMGWYRQAPGKERELVAAIRLSGSSTYYADSVKGRFTISRDNAKNTVYLQMNSLNPEDTAVYYCAADGISHWLYRYDYWGQGTQVTVSS | low polyreactivity |
| QVELVESGGGLVQAGGSLRLSCAASGFTFQEYAMGWYRQAPGQETELVAAISTSGDYTYYADSVKGRFTISRDNAKHTVYFQMNSLKPEDTAVYYCATGVDTYSLTVEHDSWGQGTQLTVSS | low polyreactivity |
| QVELVESGGGLVQAGGSLRLSCAASGSTFDYNAMGWYRQAPGKERELVAAISRTANANYADSVKGRFTISRDNAKNTVYLQMNSLKPEDTSVYYCAADFRASKVHVRFCYWGQGTQVTVSS | low polyreactivity |
| QVELVESGGGLVQAGGSLRLSCAGSGIIFPYYVMGWYRQAPGKARELVAAINSGGRTYYADSVKGRFTISRDNAKNSVYLQMNSLNREDTAVYYCAATQSTNRMDHWGQGTQVTVSS | low polyreactivity |
| QVELVESGGGLVQAGGSLRLSCSASGSIFYKYAMGWYRQAPGKERELVAAIRVSGGSTYYADSVKGRFTISRDNAKNTVYLQMNSLKPEDTAVYYCAAESKFPWGYRYDYWGQGTQVTVSS | low polyreactivity |
| QVELVESGGGLVQPGGSLRLSCAASGRTLSRYTMGWYRQAPGKERELVAAISTSGSTYYADSVKGRFTISRDNAKNTVYLQMNSLKPEDTAVYYCAADRFGIGGIRGNDYWGQGTQVTVSS | high polyreactivity |
| QVELVVSGGGLVQPGGSLRLSCAASGSTFFNNGMGWYRQSPGKERELVATITKRGGNTYYADSVKGRFTISRDNAKNTVYLQMNSLKPEDTAVYYCAALRYKLPLGYWGQGTQVTVSS | high polyreactivity |
| QVHHVESCGGLVQAGGSLRLSCAASGRTFVYYAMGWYRQAPGKEREFVAAISRSGGRTSYAYSVKGRFTISRDNPKNTVYLPMNSLKPEDTAVYYCGAEKRTQPTSREYYWGQGTQVTVSS | high polyreactivity |
| QVHHVESGGGLVQAGGSLRLSCAASGRIFSYYAMGRYRPAPGKERELVAAITSRGTRTYYADSVKGRFTISRDNAKNTVYLQMNSLKPDDTAVYYCNVVSDIRLYFRFAYDYWGQGTQVTVSS | high polyreactivity |
| QVHHVESGGGLVQAGGSLRLSCAASGRTFRYKAMGWYRQAPGKETELVARISRTGGRTYYADSVKGRFTISRDNAKTTVYLQMNSLKPEDTAVYYCNARKRYYSTRYNYWGQGTQVTVSS | high polyreactivity |
| QVHHVESGGGLVQAGGSLRLSCAASGSIFWTYAMGWYRQAPGKERELVAAITSGSSTKYADSVKGRFTISRDNAKNTVYLQMYSLKPEDTAVYYCNARSYRGYRGVFLYSGLLGSDYWGQGTQVTVSS | low polyreactivity |
| QVHHVESGGGLVQARGSLRLSCAASGFIFSSYTMGWYRQAPGKERELLAAITSRGGSTYYADSVKGRVTISRDTAKNTVYLQMNSLKAEDTAVYYCNARRIPYSPYGVHEGNYWGQGTQVTVSS | high polyreactivity |
| QVHIVESGAGLVQAGGSLRLSCAASGSIFRYNAMGWYRQAPGKEREFVAAITYSGGSTYYADSVTGRFTISRDNAKNTLFLQMNSLKPEDTAVYYCAAGYCSRGSRDGYWGQGTQVSVSS | low polyreactivity |
| QVHIVESGGGLVQAGGSLRLSCAASGSNFTLYTMGWYRQAPGKERELVAAISTSGGRTYYADSVKGRFTISRDNAKNTVYLQMNSLKPEDTAVYYCNAGYWYYGQDDYWGQGTQVTVSS | high polyreactivity |
| QVHIVETGGGLFQAGGSLRLSSASSGRIFPVYAMGWYRQAPGKERELVAAISRRGGSSYYEDSVKGRFTISRDNAKNTVYLHMNCLKTEDTEVNYFAATAYYYWWWYGGDMDYWGQGTQVSVSS | high polyreactivity |
| QVHLAESAAGLDQAGGRLRLSCAAYGIIFYYYAMGWYRQAPGKERELVAAISGTGGRTYYADSVKGRFTISRDNAKNTVYLQMNSLKPEDTAVYYCNADDTPVPSIRFDSWGQGTQVTVSS | low polyreactivity |
| QVHLEESGRRLVQAGGSLRLSCAASGSIFSYYAMGWSRPAPGKEWELVAAISQSGGSTYYADSVKGRFTISGDNAKNTVDLQMNSLKPEDTAVYSCNAVARHTRAKYGSWGQGTQVTVSS | low polyreactivity |
| QVHLEESWGGLVQAGGSLSISCAASGSIFRPNAMGWYRPAPGKERELVAAINKIGGRTYYADSVKGRFTISRDNAKNTVYLQMNSLKPEDTAVYYCNAGGGYHYWGQGTQVTVSS | high polyreactivity |
| QVHLGESGGGLVQAGGSLRLSCAASGSIFYGYAMGWYRHAPGKERELVAAITRDGSTNYADSVKGRFTISRDNAKNTVYLQMNSLKPEDTAVYYCAADTRSRRLSLVRRDYWGQGTQVTVSS | high polyreactivity |
| QVHLQESGGGLMQAGGNLRLSCAASGYISTHYDMDWYRQAPGKERELVARIDDGAITNYADSVKGRFTISRDNAKNTVYLQMNSLKPEDTEVYYCAVYSGDDYYHDYWGQGTQVTVSS | low polyreactivity |

| Sequence | polyreactivity (PSR sort gate) |
| --- | --- |
| QVHLQESGGGLVQAGGSLRLSCPASGSISRYYDMGWYRQAPGKEREFVAGISGGAITYYADSVKGRFTISRDNAKNTVYLQMNSLKPEDTAVYYCAADTGVYQYHSYWGQGTQVTVSS | low polyreactivity |
| QVHLVDSAGGLVQAGGNLSLSCEASGSIFRAYAMGWYRQAQGKERELVADISRSGGSTYYAESVKGRFTISRDNAKNTVYLQRNSLKPEDTAVSYGAAVFYLFSNLYGEYDYWGQGTQVTVSS | low polyreactivity |
| QVHLVDSGGGLVQAGGSLRLSSAASGRIFPFYAMGWYRKAPGKERELVAAITSSGGRTYYADSVKGRFTISRDNAKNTVYLQMNSLKPEDTAVYYCAASLVGPFIYSHLYDYWGQGTQVTVSS | low polyreactivity |
| QVHLVDSGGGLVQAGGSLSLSCAYSGSIFLTNAMGWYRHAPGKERELVDAITGDGSTNYADSVKGRFTISRDNAKNTVYLKMNSLIPEDTAVYYCDKDRGWSQWVDYDYWGQGTQVTVSS | low polyreactivity |
| QVHLVDSGRGLVQAGGSLRLSCAASGSTFAEYVMGRYRQAPGKERELVASIDSGGGTNYADSVKGRFTISRDNAKNTVYLQMNSLKPEDTAVYYCAASGRDIGGYDYWGHGTQVTVSS | low polyreactivity |
| QVHLVDTGGGLVKAGGSLRLSSAASGSTFEYYSMGWYRQEPGKERQLVPSISSGGSTNYADSVKGRFTISRDNAKNTVYLQMNSLKPEDTAVYYCAAEFAVSFYWSWLGQDYNFWGLGTQVTVSS | high polyreactivity |
| QVHLVESAGGLVQAAASLRLTCSASGNTLGSYAMGWYIQAPGKETKFVATISKRGGSTYYADSVKGRFTISRDNAKNTVYFQMNSLKPEDSAVYYCAAEDEYYGGDEYWGQGTQVTVSS | high polyreactivity |
| QVHLVESAVRLVQAGGSLRLSCAAPGFTFFSNARGWYRQAHGKERELFASITNDGSTYADSVKGRFTISRDNAMNTVYLQMTSLKPEDTAVYYCAARVPQWRYSRRTRERFDFWGQGTQVTVSS | low polyreactivity |
| QVHLVESGGALVQAGGSLRLSCAASGRIFGGYTMGWYRQAPGKEREFVAAITSSGGSTYYADSVKGRFTISRDNAKNTVYLQMNSLKPEDTAVYYCAVDDYYYDYDYWGQGTQVTVSS | low polyreactivity |
| QVHLVESGGCLVQAGGSLRLSCAASGRIFGLYAMGWYRPAPGKESELVAAISEGGGSTNYADSVKWRFTISRDNAKNTVYLQMNILKPEDTAVYYCAATYRTGVRRYYSWGQGTQVTVSS | low polyreactivity |
| QVHLVESGGCLVQAGGSLRLSCAASGSTFSRYAMVWYRQAPGKEREYVAGISWSGGNTYYADSVKGRFTISRDNAKNTVYLQMNSLKTEATAVYYCASDFLDYWGVYGWAEYEYWGQGTQGTVSS | low polyreactivity |
| QVHLVESGGCLVQAGGTLRLSCAATGSIFYNYDMRWYRQAPGKEREFVAAITWSGTSTYYADSVKGRFTISRDNAKNTVYLQMNSLKPEDSAVYYCNALVRRRPGYIRYDYWGQGTQVTVSS | low polyreactivity |
| QVHLVESGGGIVQAGGSLRLSCAASGFTFRRYAMGWYRQAAGKERELVATITKGGGRTYYADSVKGRFTISRDNAKNTVYLQMNSLKPEDTAVFYCNASLTYDYNYWGPGTQVTVSS | high polyreactivity |
| QVHLVESGGGIVQAGGSLRLSCAASGRTFVVYAMGWYRPATGKQLELVAAIRRIDGRTYYADSVKGRFTISRDNAKNTVYLQMNCLKPEDTAVYYCAADWVGATGYLYGYWGQGNQVTVSS | low polyreactivity |
| QVHLVESGGGLFQAGGRLRLSCAAAGSTFPKYARGWYRQAPGKERELVAAISWSGDSTNYADSVKGRITISRDNAKNTVYVQMNSLKPEDTAVYYCAAYNFIHAGPWEYDYWGQGTQVTVSS | low polyreactivity |
| QVHLVESGGGLFQAGGSLRLIFAASGLIFYKNAMGWYRQAPGKERELVAISSSGGSTYYADSVKGRFTISRDNAKNSVYLQMHSLKPEDSAVYYCAARSRRYGGGYWGQGTQVTVSS | high polyreactivity |
| QVHLVESGGGLFQAGGSLRLSCAASGGIFSIYAMGWYRQAPGKERELVAAISTSGGSTYYADSLKGRFTISRDNAKNSVYLQMNSLKPEDTAVYYCNARRGFYWSWRGRYISGDYWGQGTQVTVSS | high polyreactivity |
| QVHLVESGGGLGHAGGSLLLSCAASGSIFGRNAMGWYRQAPGKERELVADIWNGGSTYYADSVKGRFTISRDNAKNTVYLQMNILKPEDTAVYYCNADANDDGRFGGYIKYDYWGQGTQVTVSS | low polyreactivity |
| QVHLVESGGGLGKAGGSLRLTCAASGSTFKYYAMAWYRQAPGKETELVAAISQRGGSTYYADSVKGRFTISRYNAKNTVYLQMNCLKPEDTAVYYCNAGFQRAYSGPGYDMDYWGQGTQVTVSS | high polyreactivity |
| QVHLVESGGGLLQAGGSLRLSCAASGRTFGHNAMGWNRQAPGKERELVAAISSGGNTYYADSVKGRFTISRDNAKNTVYLQMNSLKPEDTAVYYCAAVTVIGGEYDYWGQGTQVTVSS | low polyreactivity |
| QVHLVESGGGLLQAGGSLRLSCAASGTIYGVYAMGWYRQAPEKEGELVAAISWTDGTTYYADSVKGRFTISRDNAKNTVYLQINSLKPEDTAVYYCAAEADVPPYLFGYWGQGTQVTVSS | high polyreactivity |
